Data reported in patent US20180371461, “[…], NUCLEIC ACID MOLECULES, POLYNUCLEOTIDES, […] ANTIBODIES COMPOSITIONS FOR […] PRRS VIRUSES AND […] PRRS VIRUS INFECTION” (AEROVIRUS TECHNOLOGIES INC., published 2018).

T1: PRRSV type 1 (Lelystad) M-S-S-GP5 disulfide-linked heterodimer peptide complex (Porcine reproductive and respiratory …, UniProt Q04565;Q04569)
T1 chain 1: MGGLDDFCNDPIAAQ
T1 chain 2: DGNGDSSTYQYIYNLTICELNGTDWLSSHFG

T2: PRRSV type 2 M(1-16)-S-S-GP5(31-61) disulfide-linked heterodimer peptide complex (Porcine reproductive and respiratory …)
T2 chain 1: MGSSLDDFCHDSTAPQ
T2 chain 2: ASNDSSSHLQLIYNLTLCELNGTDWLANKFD

B1: PEU-842 (ssDNA)
DNA: GGGCGACCCTGAAGAGGACCAGAAGCACGGACCACACACAGCGTATCGAAACGGTGAAAGCCGTAGGTTGCCC
B2: PEU-499 (ssDNA)
DNA: GGGCGACCCTGAAGAGTACACACGGGACACACACACACTCACTAGACGAAACGGTGAAAGCCGTAGGTTGCCC
B3: A507 (CoocSeq7_HistoSeq14) (ssDNA)
DNA: GGGCGACCCTGAAGAGGTTTGCATATTATAGTTATAGGAGGTGTGTAATGGACGAAACGGTGAAAGCCGTAGGTTGCCC
B4: PEU-962 (ssDNA)
DNA: GGGCGACCCTGAAGAGGATAGACAATAGCACACCACGCCCCTGCCACGAAACGGTGAAAGCCGTAGGTTGCCC
B5: A505 (CoocSeq5) (ssDNA)
DNA: GGGCGACCCTGAAGAGTTTGTAATCTGCGATTTTAAAGTTGAGTCGTCGCGAAACGGTGAAAGCCGTAGGTTGCCC
B6: PEU-424 (ssDNA)
DNA: GGGCGACCCTGAAGAGGATGTTGATAGAGCGCCGACCACACACGCACGAAACGGTGAAAGCCGTAGGTTGCCC
B7: A508 (CoocSeq8) (ssDNA)
DNA: GGGCGACCCTGAAGAGACTGGTGAGTTAATGTTTTTTCTTAGCCTTGTATCGAAACGGTGAAAGCCGTAGGTTGCCC
B8: PEU-852 (ssDNA)
DNA: GGGCGACCCTGAAGAGGACACTGCACGTACACAACGAGGATGAACACGAAACGGTGAAAGCCGTAGGTTGCCC

Experiments:
[1] = test system: PRRSV LHVA-93-3 virion, M/GP5 surface complex (Porcine reproductive and respiratory syndrome virus type 2); test: cell_activity; conditions: protection of MARC-145 cells, 500 pmole aptamer, MTT assay; also reduces lung titre in swine
[2] = test system: PRRSV NVSL virion, M/GP5 surface complex (Porcine reproductive and respiratory syndrome virus type 2); test: cell_activity; conditions: protection of MARC-145 cells, 500 pmole aptamer, MTT assay
[3] = biological target: T1, PRRSV type 1 (Lelystad) M-S-S-GP5 …; test: ELONA; type 1 complex; conditions: protein: synthetic
[4] = biological target: T2, PRRSV type 2 M(1-16)-S-S-GP5(31-61) …; test: ELONA; streptavidin plate, PBS-T, 37 C; conditions: protein: synthetic, tags: His-labelled (Ni-NTA captured), synthetic glycosylated peptide complex, disulfide M Cys9-GP5 Cys48
[5] = label: biotin (reverse screening ELISA)

Molecule | binding result [3] | other results
GGGCGACCCTGAAGAGTTTGTAATCTGCGATTTTAAAGTTGAGTCGTCGCGAAACGGTGAAAGCCGTAGGTTGCCC [A505 (CoocSeq5)] | – | activity [1]: 60%; activity [2]: 70%
B1 | binds | –
B2 | binds | –
B3 | – | binding result [4, 5]: binds
B4 | binds | –
B5 | – | binding result ([4]; label: 5' biotin (reverse screening ELISA)): binds
B6 | binds | –
B7 | – | binding result [4, 5]: binds
B8 | binds | –
